“And” between values parts separate entries of the source, which are not always exact repeats. Equal values may be shown once. Read-outs that look alike come from different tables or passages of the source.

Test [1] concerns the target T1, Human MMP9 (human, UniProt P14780 20-707).
T1 construct: also called human matrix metalloproteinase-9; gelatinase-B
Nature of the test: ELISA.

The target in test [2] is T2, Cynomolgus monkey MMP9 (cynomolgus monkey, UniProt A0A2K5UU71 20-706).
T2 construct: also called cynomolgus MMP9
Nature of the test: ELISA.

The target in test [3] is T3, Rat MMP9 (rat, UniProt P50282 20-708, limits assumed). The test can be described thus: ELISA.
Test [4] has as its target T1, Human MMP9. Nature of the test: SPR.
The target in test [5] is T1, Human MMP9. The test can be described thus: ELISA. This is another data set of the same source.
In test [6] the target is T2, Cynomolgus monkey MMP9. Nature of the test: ELISA. This is another data set of the same source.
The target in test [7] is T4, Mouse MMP9 (mouse, UniProt P41245 20-730, limits assumed).
T4 construct: also called murine MMP9; wild-type mouse MMP9
The test can be described thus: ELISA.

In test [8] the target is T3, Rat MMP9. Nature of the test: ELISA. The source holds these as a separate data set.
Test [9] has as its target T1, Human MMP9. Nature of the test: ELISA. The source holds these as a separate data set.
Test [10] has as its target T2, Cynomolgus monkey MMP9. Nature of the test: ELISA. This is another data set of the same source.
Test [11] concerns the target T4, Mouse MMP9. Nature of the test: ELISA. This is another data set of the same source.
The target of test [12] is T3, Rat MMP9. The test can be described thus: ELISA. The source holds these as a separate data set.
Test [13] addresses T1, Human MMP9. The test can be described thus: cell-based or functional assay.
Test [14] has as its target T2, Cynomolgus monkey MMP9. Nature of the test: cell-based or functional assay.
Test [15] addresses T4, Mouse MMP9. The test can be described thus: cell-based or functional assay.
For test [16], the target named is T3, Rat MMP9. The test can be described thus: cell-based or functional assay.
For test [17], the target named is T1, Human MMP9. Nature of the test: cell-based or functional assay. This is another data set of the same source.
Test [18] concerns the target T1, Human MMP9. Nature of the test: direct binding and SPR assays.

T1 sequence (P14780 20-707 Q279R/R574P): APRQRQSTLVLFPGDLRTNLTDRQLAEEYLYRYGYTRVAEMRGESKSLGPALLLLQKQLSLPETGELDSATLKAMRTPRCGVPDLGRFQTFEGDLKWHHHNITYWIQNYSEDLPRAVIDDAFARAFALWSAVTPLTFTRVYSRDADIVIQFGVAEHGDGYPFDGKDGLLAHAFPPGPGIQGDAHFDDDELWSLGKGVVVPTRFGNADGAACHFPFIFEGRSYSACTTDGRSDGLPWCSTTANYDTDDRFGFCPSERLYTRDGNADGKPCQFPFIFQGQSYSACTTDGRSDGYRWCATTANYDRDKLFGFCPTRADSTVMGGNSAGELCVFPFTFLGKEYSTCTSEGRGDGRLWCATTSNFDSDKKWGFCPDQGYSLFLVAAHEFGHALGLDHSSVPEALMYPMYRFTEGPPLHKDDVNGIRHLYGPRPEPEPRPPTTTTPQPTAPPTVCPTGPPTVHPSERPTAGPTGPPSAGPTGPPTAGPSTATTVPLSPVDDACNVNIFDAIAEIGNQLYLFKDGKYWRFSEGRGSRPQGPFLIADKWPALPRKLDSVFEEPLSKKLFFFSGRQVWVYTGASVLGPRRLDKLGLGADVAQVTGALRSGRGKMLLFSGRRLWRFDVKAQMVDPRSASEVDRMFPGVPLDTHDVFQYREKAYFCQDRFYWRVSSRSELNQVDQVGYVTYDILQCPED
T4 sequence (P41245 20-730 limits assumed): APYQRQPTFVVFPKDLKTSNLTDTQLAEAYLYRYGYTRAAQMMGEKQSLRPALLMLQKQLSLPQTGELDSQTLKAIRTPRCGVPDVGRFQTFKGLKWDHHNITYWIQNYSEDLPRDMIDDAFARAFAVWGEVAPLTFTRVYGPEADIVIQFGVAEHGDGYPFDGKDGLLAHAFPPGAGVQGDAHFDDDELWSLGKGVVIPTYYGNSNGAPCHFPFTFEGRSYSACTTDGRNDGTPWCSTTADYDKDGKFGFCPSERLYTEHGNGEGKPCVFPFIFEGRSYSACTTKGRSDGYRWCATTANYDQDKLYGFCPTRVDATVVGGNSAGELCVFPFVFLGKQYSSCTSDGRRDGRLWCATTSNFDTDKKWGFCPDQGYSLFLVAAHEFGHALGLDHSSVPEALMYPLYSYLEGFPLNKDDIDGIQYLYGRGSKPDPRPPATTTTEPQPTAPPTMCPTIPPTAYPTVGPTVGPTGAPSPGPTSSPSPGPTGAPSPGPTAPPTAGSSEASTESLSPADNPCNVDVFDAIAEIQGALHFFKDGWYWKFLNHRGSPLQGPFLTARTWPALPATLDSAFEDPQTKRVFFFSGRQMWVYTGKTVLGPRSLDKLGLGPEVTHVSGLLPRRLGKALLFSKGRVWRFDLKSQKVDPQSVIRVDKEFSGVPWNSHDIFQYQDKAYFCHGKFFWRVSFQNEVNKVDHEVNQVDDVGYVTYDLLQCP
T2 sequence (A0A2K5UU71 entry or part of it): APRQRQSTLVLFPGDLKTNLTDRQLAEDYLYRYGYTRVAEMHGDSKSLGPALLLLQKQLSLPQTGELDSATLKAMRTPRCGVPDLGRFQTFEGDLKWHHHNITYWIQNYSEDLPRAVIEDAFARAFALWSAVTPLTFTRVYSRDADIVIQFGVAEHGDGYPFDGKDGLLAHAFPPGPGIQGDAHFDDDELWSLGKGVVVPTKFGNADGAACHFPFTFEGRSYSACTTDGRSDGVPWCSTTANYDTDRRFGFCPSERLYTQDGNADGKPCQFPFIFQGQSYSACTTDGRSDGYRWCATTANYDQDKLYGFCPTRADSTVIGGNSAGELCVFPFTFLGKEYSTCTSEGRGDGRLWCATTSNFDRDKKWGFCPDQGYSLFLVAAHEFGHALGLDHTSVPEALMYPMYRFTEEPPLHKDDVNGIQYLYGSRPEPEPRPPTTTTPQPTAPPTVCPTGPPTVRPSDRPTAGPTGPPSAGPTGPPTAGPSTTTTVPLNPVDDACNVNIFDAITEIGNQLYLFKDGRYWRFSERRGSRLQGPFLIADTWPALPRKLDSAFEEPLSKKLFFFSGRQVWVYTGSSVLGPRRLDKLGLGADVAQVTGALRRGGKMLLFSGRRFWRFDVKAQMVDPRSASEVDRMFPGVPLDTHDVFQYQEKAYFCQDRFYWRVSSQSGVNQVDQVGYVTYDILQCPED
T3 sequence (P50282 20-708 limits assumed): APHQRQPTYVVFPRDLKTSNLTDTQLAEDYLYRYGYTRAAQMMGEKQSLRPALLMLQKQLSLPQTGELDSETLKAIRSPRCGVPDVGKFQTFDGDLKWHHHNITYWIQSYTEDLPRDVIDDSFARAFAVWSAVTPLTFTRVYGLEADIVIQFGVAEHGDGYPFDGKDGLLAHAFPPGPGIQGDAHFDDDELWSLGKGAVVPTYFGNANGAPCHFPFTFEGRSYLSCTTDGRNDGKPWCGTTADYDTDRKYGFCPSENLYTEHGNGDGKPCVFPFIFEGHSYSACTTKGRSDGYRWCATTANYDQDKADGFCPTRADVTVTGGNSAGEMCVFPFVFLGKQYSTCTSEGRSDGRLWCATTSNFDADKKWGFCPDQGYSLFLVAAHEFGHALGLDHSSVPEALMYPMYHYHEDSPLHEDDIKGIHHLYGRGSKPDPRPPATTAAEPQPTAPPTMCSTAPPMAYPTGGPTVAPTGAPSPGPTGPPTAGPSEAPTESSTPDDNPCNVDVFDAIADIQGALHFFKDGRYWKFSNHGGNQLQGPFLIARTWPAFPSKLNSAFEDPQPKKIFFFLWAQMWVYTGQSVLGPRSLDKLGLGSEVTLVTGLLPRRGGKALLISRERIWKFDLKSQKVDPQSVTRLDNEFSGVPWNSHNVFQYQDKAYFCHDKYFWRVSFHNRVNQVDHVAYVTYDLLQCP

B1: AB0041 (antibody, mouse IgG2b, kappa, V domains shown)
VH: QVQLKESGPGLVAPSQSLSITCTVSGFSLLSYGVHWVRQPPGKGLEWLGVIWTGGTTNYNSALMSRLSISKDDSKSQVFLKMNSLQTDDTAIYYCARYYYGMDYWGQGTSVTVSS
VL: DIVMTQSHKFMSTSVGDRVSITCKASQDVRNTVAWYQQKTGQSPKLLIYSSSYRNTGVPDRFTGSGSGTDFTFTISSVQAEDLAVYFCQQHYITPYTFGGGTKLEIKR
notes: Mouse IgG2b/kappa from hybridoma; derived by aligning the variable region entries to the full chains; also called mouse monoclonal anti-MMP9 antibody (AB0041)
In the case of B1, the Kd in the test with Human MMP9 [1] is less than 400 pM; with Cynomolgus monkey MMP9 [2], less than 400 pM; with Rat MMP9 [3] it was less than 400 pM; with Human MMP9 [4], 0.4 pM; in the test with Human MMP9 [5], 133 pM; with Cynomolgus monkey MMP9 [6], 145 pM. Besides, the Kd with Mouse MMP9 [7] was more than 100000 pM; in the test with Rat MMP9 [8], 332 pM; with Human MMP9 [9], 133 pM; with Cynomolgus monkey MMP9 [10], 145 pM; in the test with Mouse MMP9 [11], more than 100000 pM; with Rat MMP9 [12] it was 332 pM. The “Activity Assay, Human MMP9 IC50” value with Human MMP9 [13] stood at 569 pM. Moreover, the “Activity Assay, Cynomolgus monkey MMP9 IC50” value with Cynomolgus monkey MMP9 [14] came to 189 pM. In addition, in the test with Mouse MMP9 [15], the “Activity Assay, Mouse MMP9 IC50” value is more than 100000 pM. The “Activity Assay, Rat MMP9 IC50” value in the test with Rat MMP9 [16] was found to be 2780 pM.

B2: AB0046 (antibody, mouse IgG1, kappa, V domains shown)
VH: QVQLQQPGSVLVRPGASVKLSCTASGYTFTSYWMNWVKQRPGQGLEWIGEIYPISGRTNYNEKFKVKATLTVDTSSSTAYMDLNSLTSEDSAVYYCARSRANWDDYWGQGTTLTVSS
VL: DIQMTQTTSSLSASLGDRVTISCSASQGISNYLNWYQQKPDGTFKLLIYYTSILHSGVPSRFSGSGSGTDYSLTISNLEPEDIATYYCQQYGWLPRTFGGGTKLEIKR
notes: Mouse IgG1/kappa raised in MMP9-knockout mice against mouse MMP9; also called surrogate mouse antibody AB0046
Consider B2, for which the Kd in the test with Human MMP9 [9] is more than 100000 pM; in the test with Mouse MMP9 [11] it was 218 pM. Further, the “Activity Assay, Human MMP9 IC50” value with Human MMP9 [13] was more than 100000 pM. In addition, the “Activity Assay, Cynomolgus monkey MMP9 IC50” value with Cynomolgus monkey MMP9 [14] is more than 100000 pM. Besides, the “Activity Assay, Mouse MMP9 IC50” value with Mouse MMP9 [15] was 352 pM. The “Activity Assay, Rat MMP9 IC50” value with Rat MMP9 [16] is more than 100000 pM.

B3: AB0045 (antibody, human IgG4 S228P, kappa, V domains shown)
VH: QVQLQESGPGLVKPSETLSLTCTVSGFSLLSYGVHWVRQPPGKGLEWLGVIWTGGTTNYNSALMSRFTISKDDSKNTVYLKMNSLKTEDTAIYYCARYYYGMDYWGQGTLVTVSS
VL: DIQMTQSPSSLSASVGDRVTITCKASQDVRNTVAWYQQKPGKAPKLLIYSSSYRNTGVPDRFSGSGSGTDFTLTISSLQAEDVAVYYCQQHYITPYTFGGGTKVEIKR
notes: Humanized AB0041, modified IgG4 (S241P); also called humanized variant anti-MMP9 antibody; VH3/Vk4
With B3, the dissociation constant Kd is less than 400 pM in the test with Human MMP9 [1]; less than 400 pM in the test with Cynomolgus monkey MMP9 [2]; less than 400 pM with Rat MMP9 [3]; 8.8 pM with Human MMP9 [4]; 168 pM with Human MMP9 [5]; 82 pM in the test with Cynomolgus monkey MMP9 [6]. Also, the Kd with Rat MMP9 [8] was 311 pM; with Human MMP9 [9] it was 168 pM; in the test with Cynomolgus monkey MMP9 [10], 82 pM; with Mouse MMP9 [11], more than 100000 pM; with Rat MMP9 [12], 311 pM; with Human MMP9 [18], approximately 1 pM. The “IC50, MMP9 enzymatic assay under steady-state conditions” value in the test with Human MMP9 [17] was 0.148 nM to 0.161 nM (2×) and 0.158 nM. For the same molecule, in the test with Human MMP9 [13], the “Activity Assay, Human MMP9 IC50” value stood at 691 pM. Moreover, the “Activity Assay, Cynomolgus monkey MMP9 IC50” value with Cynomolgus monkey MMP9 [14] worked out at 194 pM. In addition, the “Activity Assay, Mouse MMP9 IC50” value in the test with Mouse MMP9 [15] was more than 100000 pM. For the same molecule, the “Activity Assay, Rat MMP9 IC50” value in the test with Rat MMP9 [16] came out at 8230 pM.

Values taken from US20170183421A1 (Gilead, published 2017).
